Data as given in PMC8642242.

Molecular target: SARS-CoV-2 stabilized S trimer (HexaPro) (SARS-CoV-2)

Substance | IC50 of neutralization of SARS-CoV-2 (IL1/2020) pseudovirus (pSV assay)
WRAIR-2123 (human IgG1) (antibody) | 4 ng ml^−1
WRAIR-2173 (human IgG1) (antibody) | 4 ng ml^−1
WRAIR-2165 (human IgG1) (antibody) | 10 ng ml^−1
